One assay addresses KLHDC10(41-C)-EloB/C (UniProt Q6PID8). In words: SPR; Biacore T200; 10xHis-KLHDC10-EloB/C captured on a Ni-NTA chip; UB variants as analytes, 2 uM to 0.125 uM; 25 mM Tris, 200 mM NaCl, 0.1% Tween20, pH 7.4, 20 °C; multi-cycle kinetics, 1:1 binding model; two replicates. For orientation: Surface plasmon resonance follows binding to a sensor surface in real time, without labels.
For assay [1], the target named is KLHDC10^41-C-EloB/C with a 10X Histidine tag on EloC (SPR) (UniProt Q6PID8). The experiment in a line: SPR; Biacore T200; His-tagged KLHDC10 complex captured on Ni-NTA chip (about 300 RU); ubiquitin variants as analytes 2 uM to 0.125 uM, multi-cycle kinetics; 25 mM Tris, 200 mM NaCl, 0.1% Tween20, pH 7.4; 20 °C; 1:1 binding model.

From article PMC11568203 come the findings set out here.

Values joined by “and” are separate entries in the source; they are usually repeats but may differ in a detail not shown here. Identical values can stand only once.

The term Kd denotes a measure of binding affinity in units of concentration. A high value points to lower affinity. As for “ubiquitin (from UniProt P0CG48 1-76) (natural protein)”, the Kd is 319 nM and 393 nM with KLHDC10(41-C)-EloB/C; 300 nM in assay [1].
